Columns and labels:
[1] = target: T1, human VEGF165 (human, UniProt P15692-4 27-191); assay: ELISA, relative binding activity; 120 mg/mL formula, 2-8 C, 12M
T1 construct: all are put under this molecule; also called VEGF A; VEGFA

[2] = target: T2, human Ang2 (human, UniProt O15123 19-496, limits assumed); assay: as above
T2 construct: Bought proteins; also called hAng2-biotin; Ang2-Bio (Sino)
T2 sequence (looked up): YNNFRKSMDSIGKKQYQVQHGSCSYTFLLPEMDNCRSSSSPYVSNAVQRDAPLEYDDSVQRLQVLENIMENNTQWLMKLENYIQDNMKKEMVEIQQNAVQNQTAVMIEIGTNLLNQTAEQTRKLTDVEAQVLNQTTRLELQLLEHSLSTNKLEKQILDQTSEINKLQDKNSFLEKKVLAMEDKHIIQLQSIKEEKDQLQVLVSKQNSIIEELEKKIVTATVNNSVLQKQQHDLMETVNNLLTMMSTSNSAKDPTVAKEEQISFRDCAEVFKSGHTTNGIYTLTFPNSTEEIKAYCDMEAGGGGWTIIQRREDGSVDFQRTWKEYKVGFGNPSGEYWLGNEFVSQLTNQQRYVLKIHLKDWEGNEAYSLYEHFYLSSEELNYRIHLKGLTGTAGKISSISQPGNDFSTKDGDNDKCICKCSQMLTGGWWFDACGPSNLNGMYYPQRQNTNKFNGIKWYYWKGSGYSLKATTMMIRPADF

[3] = target: T1, human VEGF165; assay: ELISA, relative binding activity; IEX04-012 about 40 mg/mL in F9, 40 C, 1 week
[4] = target: T2, human Ang2; assay: as above
[5] = target: T1, human VEGF165; assay: ELISA, relative binding activity; 150 mg/mL formula, T0
[6] = target: T2, human Ang2; assay: as above
[7] = target: T1, human VEGF165; assay: ELISA, relative binding activity; final formula 40 mg/mL, 25 C, 3M
[8] = target: T2, human Ang2; assay: as above
[9] = target: T1, human VEGF165; assay: ELISA, relative binding activity; 120 mg/mL formula, 25 C, 3M
[10] = target: T2, human Ang2; assay: as above
[11] = target: T1, human VEGF165; assay: ELISA, relative binding activity; final formula 40 mg/mL, 2-8 C, 12M
[12] = target: T2, human Ang2; assay: as above
[13] = target: T1, human VEGF165; assay: ELISA, relative binding activity; IEX04-012 about 40 mg/mL in F2, 40 C, 0 weeks
[14] = target: T2, human Ang2; assay: as above
[15] = target: T1, human VEGF165; assay: ELISA, relative binding activity; final formula 40 mg/mL, T0
[16] = target: T2, human Ang2; assay: as above
[17] = target: T1, human VEGF165; assay: ELISA, relative binding activity; IEX04-012 about 40 mg/mL in F8, 40 C, 1 week
[18] = target: T2, human Ang2; assay: as above
[19] = target: T1, human VEGF165; assay: ELISA, relative binding activity; IEX04-012 about 40 mg/mL in F10, 40 C, 1 week
[20] = target: T2, human Ang2; assay: as above
[21] = target: T1, human VEGF165; assay: ELISA, relative binding activity; 120 mg/mL formula, 40 C, 2W
[22] = target: T1, human VEGF165; assay: ELISA, relative binding activity; 120 mg/mL formula, 25 C, 1M
[23] = target: T2, human Ang2; assay: as above
[24] = target: T1, human VEGF165; assay: ELISA, relative binding activity; IEX04-012 about 40 mg/mL in F2, 40 C, 1 week
[25] = target: T2, human Ang2; assay: as above
[26] = target: T1, human VEGF165; assay: ELISA, relative binding activity; 120 mg/mL formula, 2-8 C, 6M
[27] = target: T2, human Ang2; assay: as above

T1 sequence (P15692 other isoform, or with tags, fused parts or gaps limits assumed): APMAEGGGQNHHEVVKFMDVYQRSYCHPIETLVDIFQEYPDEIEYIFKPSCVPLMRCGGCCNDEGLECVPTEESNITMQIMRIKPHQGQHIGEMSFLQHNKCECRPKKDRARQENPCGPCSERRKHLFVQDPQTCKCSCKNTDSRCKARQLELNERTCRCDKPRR

B1: IEX04-012 (bispecific antibody)
chain: DIQLTQSPSSLSASVGDRVTITCSASQDISNYLNWYQQKPGKAPKVLIYFTSSLHSGVPSRFSGSGSGTDFTLTISSLQPEDFATYYCQQYSTVPWTFGCGTKVEIKGGGGSGGGGSGGGGSGGGGSEVQLVESGGGLVQPGGSLRLSCAASGYDFTHYGMNWVRQAPGKCLEWVGWINTYTGEPTYAADFKRRFTFSLDTSKSTAYLQMNSLRAEDTAVYYCAKYPYYYGTSHWYFDVWGQGTLVTVSSGGGGSGGGGSGGGGSEVQLLESGGGLVQPGGSLRLSCAASGFALDYYAIGWFRQAPGKGLEGVSCISSGEGSTYYADSVKGRFTISRDNSKNTVYLQMNSLRAEDTAVYYCATDSRGDDVACEGLRRNEYDYWGQGTLVTVSS
B1 showed a Relative binding Activity to VEGF A (ELISA, %) [1] of 104%, a Relative binding Activity to Ang2 (ELISA, %) [2] of 104% and a Relative binding Activity to VEGF (ELISA, %) [3] of 97%. For the same binder, the Relative binding Activity to Ang2 (ELISA, %) [4] was 96%, the Relative binding Activity to VEGF A (ELISA, %) [5] was 92% and the Relative binding Activity to Ang2 (ELISA, %) [6] was 103%. For the same binder, the Relative binding Activity to VEGF A (ELISA, %) [7] was 96%, the Relative binding Activity to Ang2 (ELISA, %) [8] was 85% and the Relative binding Activity to VEGF A (ELISA, %) [9] was 106%. It also gave a Relative binding Activity to Ang2 (ELISA, %) [10] of 75%, a Relative binding Activity to VEGF A (ELISA, %) [11] of 100% and a Relative binding Activity to Ang2 (ELISA, %) [12] of 96%. The Relative binding Activity to VEGF (ELISA, %) [13] was 100%, the Relative binding Activity to Ang2 (ELISA, %) [14] was 100% and the Relative binding Activity to VEGF A (ELISA, %) [15] was 103%. The Relative binding Activity to Ang2 (ELISA, %) [16] was 95%, the Relative binding Activity to VEGF (ELISA, %) [17] was 101% and the Relative binding Activity to Ang2 (ELISA, %) [18] was 92%. For the same binder, the Relative binding Activity to VEGF (ELISA, %) [19] was 99%, the Relative binding Activity to Ang2 (ELISA, %) [20] was 98% and the Relative binding Activity to VEGF A (ELISA, %) [21] was 113%. For the same binder, the Relative binding Activity to VEGF A (ELISA, %) [22] was 96%, the Relative binding Activity to Ang2 (ELISA, %) [23] was 93% and the Relative binding Activity to VEGF (ELISA, %) [24] was 98%. It also gave a Relative binding Activity to Ang2 (ELISA, %) [25] of 99%, a Relative binding Activity to VEGF A (ELISA, %) [26] of 99% and a Relative binding Activity to Ang2 (ELISA, %) [27] of 96%.

Reference: patent EP4628097A1 (Innovent Biologics (Suzhou) Co., Ltd., dated 2025)
